{"source": "patent US9962427B2", "about": "“Treatment of right ventricular dysfunction due to pressure overload” (OTTAWA HOSPITAL RESEARCH INSTITUTE, priority 2016, dated 2018)", "molecules": {"B1": {"name": "hCT1: Recombinant human CT1 protein; 201 amino acid sequence, GenBank Accession Nos AAD12173 and AAA85229 (human) (protein, UniProt Q16619 1-201, looked up)", "Cardiotrophin-1": "MSRREGSLEDPQTDSSVSLLPHLEAKIRQTHSLAHLLTKYAEQLLQEYVQLQGDPFGLPSFSPPRLPVAGLSAPAPSHAGLPVHERLRLDAAALAALPPLLDAVCRRQAELNPRAPRLLRRLEDAARQARALGAAVEALLAALGAANRGPRAEPPAATASAASATGVFPAKVLGLRVCGLYREWLSRTEGDLGQLLPGGSA"}}, "key": {"rats": {"system": "rats", "test": "M-mode ECHO after 2 weeks of osmotic minipump delivery in rats", "assay_type": "in vivo, rat", "settings": "hCT1 6 μg/kg/hr", "procedure": "FIGS. 3A, 3B, and 3C. […] Arrows (in upper panels) point to myocardial wall (RVLW). Dotted lines (in lower panels) show inner ventricle chambers.\nCT-1 was tested in vivo to determine whether its administration would induce a myocardial adaptive remodeling characteristic of physiologic compensation (FIGS. 3A, 3B, and 3C). Osmotic minipumps containing PBS control (Ctrl) or hCT1 (6 μg/kg/hr) or Isoproterenol (ISO, 1 mg/kg/day) were implanted subcutaneously in rats. ISO is a beta-adrenergic receptor agonist and continuous infusion with ISO in rats is known to induce pathological cardiac hypertrophy and cardiomyocyte damage (in both the right and left ventricles) which progresses to heart failure (Morisco et al (2001) J Mol Cell Cardiol 33:561-573 and Grimm et al (1998) Cardiovascular Research 37:91-100). After 2 weeks of treatment, M-mode ECHO analysis was used to assess myocardial structure/function (FIG. 3A). In this model, an increased right ventricle lateral wall (RVLW) thickness indicates the presence of myocardiocytes growth, and an increased ratio of the right to left ventricle internal diameters (RVID/LVID) is an indicator of pathologic hypertrophy. An increased RVLW thickness but constant or reduced RVID:LVID ratio is an indicator of adaptive compensatory RV remodeling. Both hCT1 and ISO induced a significant increase in RVLW thickness (12% and 32% fold increase, respectively) compared to control rats (n=3; * and **, P<0.05). […] An in vivo growth reversal analysis was also conducted. Following a 2 week delivery of CT-1 protein (6 μg/kg/hr) or PE (10 mg/kg/day) as the pathologic control in this case, animals were then assessed for cardiac structure/function at a 6 week follow-on period. […] Collectively, these studies support the contention that CT-1 elicits a reversible physiologic cardiac adaptive compensation."}, "NF-κB": {"system": "NF-κB", "test": "NF-κB luciferase reporter in primary neonatal cardiomyocytes", "assay_type": "cell-based", "settings": "hCT1 0.5 nM", "procedure": "FIGS. 6A, 6B, and 6C. Stimulation with hCT1 causes sustained activation of NF-κB and Stat3 with limited activation of Mef2, as well as limited Nfat activation; the latter two indices are distinct expression patterns from pathologic hypertrophic stimulation. FIG. 6A Primary neonatal cardiomyocytes were transfected with luciferase reporter plasmids (NF-κB or Mef2), as indicators of hypertrophic activity. Luciferase activity was measured after treatments for 24 hrs with: hCT1 (0.5 nM), PE (100 μM), or procaspase 3 activating compound 1, PAC-1 (25 μM) (left). Treatments at early timepoints (30 min, 1 hr, and 3 hr) were also conducted for hCT1 (right). FIG. 6B Primary neonatal cardiomyocytes were transfected with a luciferase reporter plasmid for Stat3. Luciferase activity was measured after treatments for 24 hrs with: hCT1 (0.5 nM), PE (100 μM), or procaspase 3 activating compound 1, PAC-1 (25 μM) (left) and at earlier time points (right). […] Luciferase activity was measured after treatments for 24 hrs with: hCT1 (0.5 nM), PE (100 μM), or procaspase 3 activating compound 1, PAC-1 (25 μM) (left) and at earlier time points (right)\nThe signaling pathways that CT-1 engages in mediating physiologic adaptive compensatory remodeling were examined. […] Primary neonatal cardiomyocytes were transfected with luciferase reporter plasmids (NF-κB and Mef2) to be used as a read out of transcriptional activity. […]"}, "cardiomyocytes": {"system": "cardiomyocytes", "procedure": "FIG. 7B Quantitation of cell viability analysis as shown in (A). FIG. 7C Quantification of PI cell viability FACS analysis following a 24 hrs treatment of cardiomyocytes with H2O2 in the presence or absence of hCT1. Pre-treatment with PI3K inhibitor (LY294002, 50 μM) before H2O2 was also tested.\nCardiomyocytes were treated with control serum-free media or with H2O2 (300 μM, 1 hr) to induce cell death in the presence or absence of hCT1 (0.5 nM). After 24 hrs, cells were incubated with the cell viability marker Propidium Iodide (PI) (1 μg/mL) and analyzed by FACS (Ex: 535 nm, Em: 617 nm) for viable cells; i.e. cells inside the gated region of the side scatter (SS) versus PI plot (FIG. 7A). […] The PI3K pathway is a critical feature of physiological cardiac adaptive compensation and is a key protective feature distinguishing it from pathological adaptive compensation. Therefore, cardiomyocytes were pre-treated with a PI3K inhibitor (LY294002, 50 μM) before CT-1/H2O2 treatment."}}, "data": [{"molecule": "B1", "values": [{"measurement": "RVID/LVID ratio, in words", "setting": "rats", "result": "did not develop this pathologic state of cardiac hypertrophy"}, {"measurement": "increase in RVLW thickness compared to control rats", "setting": "rats; ISO 1 mg/kg/day, subcutaneous minipump", "result": 12, "unit": "% fold increase"}, {"measurement": "NF-κB luciferase activity at 1 hr and 3 hr", "setting": "NF-κB", "result": "significant activation"}, {"measurement": "NF-κB transcriptional activity at 24 hrs", "setting": "NF-κB", "result": "sustained"}, {"measurement": "viability improved vs. H2O2", "setting": "cardiomyocytes; H2O2 in the presence of hCT1 (FIG. 7C)", "result": 154, "unit": "%"}, {"measurement": "increase in viability upon pre-treatment", "setting": "cardiomyocytes; hCT1 0.5 nM, 1 hour H2O2 300 μM, viability at 24 hours (FIG. 7B)", "result": "~34", "unit": "%"}]}]}
